Measurements published in the supplement of paper PMC12042874.
± gives the uncertainty stated by the source.

test: amyloid nucleation score (Sup35N fusion, yeast selection) (log enrichment); library NNK2; higher = more nucleation; inactive = no reads after selection
Method in brief: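 Random libraries were run with three technical output replicates. In each, psi-negative yeast expressing Sup35N fused to peptides of 20 random codons were induced 24 hours with 100 μM copper sulfate and grown 7 days at 30°C on medium lacking adenine and uracil, and input and output plasmid inserts were Illumina-sequenced. The nucleation score is the DiMSum log enrichment of output over input reads, centred on the mode score of non-aggregating sequences, and sequences under 100 input reads were excluded.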

Row | Substance | amyloid nucleation score
1 | SMYCTPFILCYNPHSNRVAH | 9.811 ± 0.037
2 | SMYLKKGRSVRGGMG | -0.66 ± 0.44
3 | SNALQDGRVQLGSFEHRIVR | 0.649 ± 0.5
4 | SNCGVLD | inactive
5 | SNCRTSFIQMVVYDCFGSFF | 4.74 ± 0.09
6 | SNCVCSRIVCCVRMGTGL | 9.908 ± 0.042
7 | SNGLMSACRWYLPAFLED | inactive
8 | SNGYGRLAQLVGGWRDTKGG | 0.398 ± 0.29
9 | SNIVSWVIEDGVRKC | 4.5 ± 0.049
10 | SNLEFNLE | -0.747 ± 0.37
11 | SNLFCLNTSLVQAVMMACPI | 0.113 ± 1.1
12 | SNNNAIVNRSRIIRHFMNYC | -0.604 ± 0.56
13 | SNQCTWNDYSG | -0.565 ± 0.64
14 | SNQMWLMVCRVE | 0.112 ± 0.19
15 | SNRWPGTFLASETNVLLE | -0.224 ± 0.32
16 | SNSGMTVKCNYVYSFVTGKS | 0.816 ± 0.21
17 | SNSMLASIVNHPSVSVMFFV | 6.035 ± 0.047
18 | SNVQGLACETTGMARGMWSE | 0.597 ± 0.17
19 | SNYVY | -0.161 ± 1.1
20 | SPHNTARLESAEDQSSMCEP | 1.55 ± 0.23
21 | SPKMF | -0.564 ± 0.46
22 | SPQRFDLGYGVYVCDTPK | -0.231 ± 0.38
23 | SPSEYLLVAYMSHLTENETV | -0.064 ± 0.45
24 | SPSHGVRNP | 1.51 ± 0.34
25 | SPTRFFQLFQADGNSNRGDV | -0.519 ± 1

Row | Substance | amyloid nucleation score
26 | SPVLIAYQGMAKDWGLVING | 0.139 ± 0.56
27 | SQFSPNDLLLGSWKSDCPWR | -0.917 ± 0.54
28 | SQITYVFYFRRGFIMLMWWE | -0.323 ± 0.79
29 | SQLFTVLSKS | -0.062 ± 0.35
30 | SQWDKTVT | -0.986 ± 0.55
31 | SRCGIWPWLRHDKVD | 0.853 ± 0.18
32 | SRCMILFFRFIVSRYEVKSL | 1.77 ± 0.12
33 | SREIWRLYDI | -0.124 ± 0.8
34 | SREYLSRFVTFYLMYFYAKS | -0.516 ± 0.64
35 | SRHGMSLASR | -0.024 ± 0.46
36 | SRHYYRFHTFAVVGWLSLYW | -0.849 ± 1.1
37 | SRKGVTLLVLNNSLTHRSCN | 3.72 ± 0.049
38 | SRKKVMHYDFLVSGVVTHRW | inactive
39 | SRLSLIFDSIYLCS | 2.97 ± 0.15
40 | SRLVFS | inactive
41 | SRMVDR | 0.345 ± 0.45
42 | SRNNCRCD | -1.17 ± 1.1
43 | SRPWNYCRDLWTSVHTGLLS | 0.547 ± 0.36
44 | SRQVTSCVVRRSQCIWSG | 1.2 ± 0.27
45 | SRRFFVCL | inactive
46 | SRSFASPRYELMLATRTHEK | 0.966 ± 0.57
47 | SRSGCHYCAVYTQIVLPRAP | 8.711 ± 0.081
48 | SRSLWYVLNYYV | 0.062 ± 0.29
49 | SRSQPVICWNTWFVTWYESS | 8.914 ± 0.075
50 | SRSSGTDFMYFDRFLPTRWA | -0.805 ± 1.1

Row | Substance | amyloid nucleation score
51 | SRSVNCAVFNADSLCPKLWL | 4.81 ± 0.11
52 | SRWIGSECNPNCNLSVSYIL | 4.87 ± 0.057
53 | SSCISHGGRK | -0.546 ± 0.45
54 | SSCIWLVFKCSWFGF | 4.421 ± 0.029
55 | SSCKARMVFMLGRYGSGRNL | 0.112 ± 0.79
56 | SSDATCGVDGHFRLLITHCG | 5.9 ± 0.075
57 | SSFIQGCQDSDTNFGGTSSC | inactive
58 | SSGGMVKHYPKIQLSSVWVF | 0.238 ± 0.64
59 | SSIGMVDIVKTLMGK | -0.089 ± 0.61
60 | SSIGYVDYAEFEAGFFIYIV | -0.823 ± 0.44
61 | SSLRKRRLVVRNVAKSRMFL | 2.14 ± 0.31
62 | SSLWTCGFIELRPRVLSMGS | 0.327 ± 0.57
63 | SSQSHGGRFQIEYFW | -0.059 ± 0.33
64 | SSRSDAIFIAICLNFIKGKM | 1.32 ± 0.33
65 | SSRYSVIVVYMMGAPSLVGQ | inactive
66 | SSSNLG | inactive
67 | SSSRGRVCP | 0.012 ± 0.63
68 | SSTAVSQILH | inactive
69 | SSVSRLR | -0.277 ± 0.74
70 | SSWKCIIYNPQCEVPTGEQE | -0.289 ± 0.49
71 | SSYLPLQSTAIGHHSSRYGL | 1.08 ± 0.34
72 | STATHSWGCFSWNSCFHGRQ | 9.493 ± 0.05
73 | STCFVCFFTYVNSYIVLFT | 5.63 ± 0.082
74 | STELFLS | -0.251 ± 0.28
75 | STEQLLQVHNTHGRPWSRLS | 1.32 ± 0.32

Row | Substance | amyloid nucleation score
76 | STFDPCLRHPLIMCFYSVCA | 0.014 ± 0.46
77 | STGILRS | inactive
78 | STGRNMKPSLNASFLRLRMF | -0.228 ± 1.1
79 | STICFG | -0.541 ± 1
80 | STLVIVCFYICRHFSTYRVR | -0.832 ± 0.32
81 | STLWVAKGH | -0.064 ± 1.1
82 | STNCFRAFTHYPMYIGCVVM | -0.159 ± 0.8
83 | STNVMLLSFSHMYHSYVLLG | -0.261 ± 0.63
84 | STPLILVRCNSYL | -0.456 ± 0.28
85 | STRSGGLKQSVPLSRPP | -0.325 ± 0.42
86 | STSECLK | inactive
87 | STSKDLMYDCL | inactive
88 | STTGYSVWFVA | -1.19 ± 0.62
89 | STTYFDVCMVGFWYNFSTWG | -0.994 ± 1.1
90 | STVEVRGYLDAVMVGVVSNS | 3.8 ± 0.052
91 | STVGEVYVGLALMDVWGMEW | 0.559 ± 0.32
92 | STYNCFTGADRSLL | 0.94 ± 0.67
93 | SVAVPWGFTSYSCVRLGGFN | 3.06 ± 0.14
94 | SVCMRIKFWSPAPDAEHEKA | 6.614 ± 0.056
95 | SVDNGYVFSLVDPREYRFHL | -0.813 ± 0.76
96 | SVDVKPVTQMTGTMVESTGS | 1.17 ± 0.28
97 | SVFFGFWDTHAAAYMHGVFM | inactive
98 | SVHRERWMFYIFVCTLVVRG | 0.056 ± 0.43
99 | SVICELLQDRFTSLHGMYGY | 0.119 ± 0.31
100 | SVIDDHKKVKSGITRSYREK | 0.504 ± 0.15

Row | Substance | amyloid nucleation score
101 | SVLERPCMS | 0.176 ± 0.76
102 | SVLNGAAGMYWCW | 0.107 ± 0.46
103 | SVLRSNRIVDLSIL | inactive
104 | SVMPMRYLVCVILLGRRSRT | 0.765 ± 0.16
105 | SVRKRKSNNAIPANAPNKI | 0.513 ± 0.35
106 | SVSCIKFIHSLAEYGMSKEN | 0.697 ± 0.16
107 | SVSSKGNLGA | 0.11 ± 0.22
108 | SVTPWTMNNSQYILMAYRVK | 0.283 ± 0.34
109 | SVVAVFLKYCVVADSATGV | 0.001 ± 0.76
110 | SVVFKNSVWYSITNHNIMSL | 1.57 ± 0.29
111 | SVVWCWCSEW | 0.602 ± 0.81
112 | SVVWFNTMYLYDWLHKPICI | inactive
113 | SVWTFLTCI | 0.906 ± 0.46
114 | SVWVCPPLFGQMCAGVTNNR | -0.014 ± 0.41
115 | SVYGKFLYF | 2.23 ± 0.11
116 | SVYVVGFLCQGYSSLRSLVA | 4.42 ± 0.089
117 | SWCACSLGSQYGTMSGWLLY | 0.162 ± 0.37
118 | SWCCGCFLLCVPRTVSSFVR | 0.167 ± 0.39
119 | SWGNLWKSYCAK | -0.55 ± 0.49
120 | SWIIGVWIR | -0.287 ± 0.45
121 | SWLSQKSLESALRAIMNGKY | 2.13 ± 0.16
122 | SWLVDPTLGTRLSFTVMYRC | 0.053 ± 1.1
123 | SWNIFPQSNLKSKWDTIRCL | -2.46 ± 0.62
124 | SWRNSKISMPNSAFTSQDTV | 0.052 ± 0.31
125 | SWSAIEPQVPKYYYSL | -0.623 ± 0.79

Row | Substance | amyloid nucleation score
126 | SWTLFKTLMWIRHILFVECR | -0.973 ± 0.55
127 | SYCKPTVIACVMLSCQQ | 8.866 ± 0.067
128 | SYCSLVFLTDISSYIGFQCV | 5.16 ± 0.078
129 | SYFNVNWARFQVGYSLIVCL | 6.131 ± 0.04
130 | SYGDRLALQR | 0.546 ± 0.8
131 | SYLCDPLRETTYSPKYLRST | 0.667 ± 0.38
132 | SYLFVSVDLHFIEVFYR | 1.44 ± 0.12
133 | SYLKYVDWQTFKVTWCAGGN | -0.38 ± 0.54
134 | SYLSCGQKKHWCWPKVDSFR | -0.444 ± 0.42
135 | SYNYLYILRCYYLDVHSFRT | -0.788 ± 0.76
136 | SYPAKDRNLYDCYLCPVSYL | -1.16 ± 0.61
137 | SYPDELNLEFGCYHQSWTYF | 3.67 ± 0.058
138 | SYRNTIWVSINALGVSWEAS | 2.52 ± 0.078
139 | SYSLRFWYIPVADFWLL | -0.938 ± 0.36
140 | SYTNLGPAGCVALSKYSVIR | -1.18 ± 1.1
141 | SYVCRIERADVACWVKEEGA | 0.857 ± 0.28
142 | SYVFAPWFLVILPKSISMD | 4.58 ± 0.079
143 | SYVGMFRTLDVKLRLNKCGY | -0.038 ± 1.1
144 | SYYFLLLFVQT | -0.017 ± 0.76
145 | SYYQCCSG | 3.15 ± 0.14
146 | TALFGISMVCSGRG | -0.583 ± 1.1
147 | TAMEVPHRIWLR | -0.305 ± 1.1
148 | TAQILLSTGSVLHLMLGGSP | 3.02 ± 0.088
149 | TAWSMNVHVSANVSTCRPLR | 1.87 ± 0.2
150 | TCARSVYDNLSLINLTRG | 1.73 ± 0.1

Row | Substance | amyloid nucleation score
151 | TCDWLKAFIAWF | 1.53 ± 0.3
152 | TCGDGPATYTQT | 0.132 ± 0.38
153 | TCGLSIVDYWSLR | -0.99 ± 1.1
154 | TCGTVSNSRASRQFESSSNA | 0.633 ± 0.18
155 | TCIFVNDFSMSGWDCMLFY | 4.4 ± 0.062
156 | TCILMLCQECVCTF | 9.809 ± 0.051
157 | TCLGSRWLT | 0.653 ± 0.33
158 | TCLYP | -0.707 ± 0.55
159 | TCTQPFLVGCVERSLYES | -0.317 ± 0.28
160 | TCYRSDRPIRRRVAFALTEG | 1.04 ± 0.41
161 | TCYTKPLNEYYE | 0.011 ± 0.56
162 | TDFFCLTIFFNVEHVISKCI | 2.14 ± 0.17
163 | TDISQEGPVNIL | inactive
164 | TDKKACNLNDANVS | -0.014 ± 0.76
165 | TDLASKAS | -0.194 ± 0.48
166 | TDLTQF | -0.375 ± 1.1
167 | TDLWFRLATRCNDNDAFFL | -0.981 ± 1.1
168 | TDSAFLCHIAWTPFTVH | 0.866 ± 0.48
169 | TEAFKGLSLS | 0.184 ± 0.49
170 | TELVWLPWTRFCFGRNYRG | 0.101 ± 0.35
171 | TFAVFSYLRFIATNSGNIKA | -0.606 ± 0.48
172 | TFDWKTSKPYANKPLRFETS | 0.284 ± 0.34
173 | TFFYCGPRKLFYKI | -0.387 ± 1.1
